# From publication PMC7498309
# How the values were obtained:
# [1] = molecular target: isolated HEPN domain (172–428 aa) of StCsm6 (Streptococcus thermophilus DGCC8004); assay: SEC
# [2] = molecular target: isolated CARF domain (1–169 aa) of StCsm6 (Streptococcus thermophilus DGCC8004); assay: SEC
Substance,stoichiometry N [1],stoichiometry N [2]
isolated HEPN domain (172–428 aa) of StCsm6 (domain or fragment),2,
isolated CARF domain (1–169 aa) of StCsm6 (domain or fragment),,2
